Reference: patent US20240392024A1 (SHANGHAI CELGEN BIO PHARMACEUTICAL, published 2024)
“And” between values parts separate entries of the source, which are not always exact repeats. Equal values may be shown once.

Experiments:
[1] = biological target: T1, TNFR2-His (Sino Biological, 10417-H08H, NP_001057.1 Met1-Asp257, with multi-histidine tag expressed on … (human, UniProt P20333 23-257)); test: ELISA, plate coated with TNFR2-His (first test)
T1 construct: range 1-257; Bought protein; also called recombinant human TNFR2 protein; TNFR2-His antigen; not shown: C-terminal multi-histidine tag
T1 sequence (looked up): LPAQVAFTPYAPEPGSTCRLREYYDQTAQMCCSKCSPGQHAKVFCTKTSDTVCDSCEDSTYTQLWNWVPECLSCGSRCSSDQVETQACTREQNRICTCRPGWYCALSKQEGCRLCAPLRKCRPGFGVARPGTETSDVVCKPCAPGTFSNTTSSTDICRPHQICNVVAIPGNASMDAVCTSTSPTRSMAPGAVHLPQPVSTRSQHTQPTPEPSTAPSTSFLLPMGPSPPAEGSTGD
Method in brief: (§1)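 Antibodies were serially diluted and incubated on blocked ELISA plates coated with C-terminally His-tagged recombinant human TNFR2. Detection used an enzyme-labelled anti-IgG secondary antibody, TMB development and a microplate reader, and the dilution series gave the EC50.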

WT = biological target: T2, WT; test: flow cytometry on ConA-stimulated spleen cells of WT mice, mCD3+ T cells
T2 construct: also called T cells of wild-type (WT) mice; mouse TNFR2 on the cell membrane
T2 chain: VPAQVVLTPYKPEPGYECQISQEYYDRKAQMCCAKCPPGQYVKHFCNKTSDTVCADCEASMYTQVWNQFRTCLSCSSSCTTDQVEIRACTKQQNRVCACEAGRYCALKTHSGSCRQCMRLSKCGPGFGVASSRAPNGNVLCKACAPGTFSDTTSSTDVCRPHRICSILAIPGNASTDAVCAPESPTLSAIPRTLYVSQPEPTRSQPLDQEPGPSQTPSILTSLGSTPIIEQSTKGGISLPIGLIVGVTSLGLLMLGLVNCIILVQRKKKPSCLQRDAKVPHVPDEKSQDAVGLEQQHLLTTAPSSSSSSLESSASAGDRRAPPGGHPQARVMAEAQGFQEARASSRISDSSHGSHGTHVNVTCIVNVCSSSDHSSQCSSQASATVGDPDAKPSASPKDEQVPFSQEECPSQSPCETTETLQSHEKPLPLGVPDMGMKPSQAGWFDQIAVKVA
Experimental: The cells were stained again with Cy-3 anti-human IgG and FITC anti-mCD3 (BD, 555274) after washing, under the same incubation conditions. After washing, the detection was performed.

[2] = biological target: T3, human TNFR2 on the cell membrane (human, UniProt P20333 23-461); test: flow cytometry, CHO-TNFR2 cells
T3 construct: whole, on cells; One molecule for all cell formats; also called TNFR2-CHO cells; CHO-TNFR2
T3 sequence (looked up): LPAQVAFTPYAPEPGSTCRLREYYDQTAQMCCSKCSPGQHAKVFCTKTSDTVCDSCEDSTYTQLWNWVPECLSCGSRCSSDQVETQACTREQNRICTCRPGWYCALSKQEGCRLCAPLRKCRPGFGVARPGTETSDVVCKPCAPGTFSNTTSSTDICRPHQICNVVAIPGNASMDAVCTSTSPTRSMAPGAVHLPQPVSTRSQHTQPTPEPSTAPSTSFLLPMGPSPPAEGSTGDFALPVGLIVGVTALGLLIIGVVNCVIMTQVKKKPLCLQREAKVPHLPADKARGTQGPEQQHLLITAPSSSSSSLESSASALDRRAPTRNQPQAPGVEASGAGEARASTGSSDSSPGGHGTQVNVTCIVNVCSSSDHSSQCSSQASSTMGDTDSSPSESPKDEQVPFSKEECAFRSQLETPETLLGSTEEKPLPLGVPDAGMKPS
Method in brief: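 Binding was measured by flow cytometry (Beckman CytoFLEX) on a CHO line stably overexpressing human TNFR2. Cells in 96-deep-well plates were exposed to serially diluted antibodies, washed and labelled with a fluorescent anti-IgG secondary antibody, and EC50 was determined across the dilutions.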

[3] = biological target: T3, human TNFR2 on the cell membrane; test: flow cytometry, Jurkat-TNFR2 cells
Experimental: Purified human-mouse monoclonal antibodies against TNFR2 were co-cultured with TNFR2 positive Jurkat cells (Jurkat cells were transfected with pcDNA3.4-TNFR2 plasmid using conventional methods, and after screening, stable and highly expressed TNFR2 Jurkat cell lines were obtained) and stained. The antibody binding intensity was analyzed by flow cytometry. The specific steps are as follows: Jurkat-TNFR2 was counted, centrifuged, resuspended, then added to a 96-deep well plate, and the supernatant was discarded. The anti-TNFR2 antibody was gradient diluted, and added to the 96-deep well plate, After incubation and wash, the secondary antibody FITC-anti-human IgG (Abcam: 6854) was added, and the samples were detected using Beckman CytoFLEX.

[4] = biological target: T1, TNFR2-His (Sino Biological, 10417-H08H, …); test: ELISA, plate coated with TNFR2-His (second test)
Method in brief: as §1

[5] = biological target: T1, TNFR2-His (Sino Biological, 10417-H08H, …); test: competition ELISA on coated TNFR2-His against biotin-labeled TNFα fusion protein at fixed concentration
Experimental: (§2) The ELISA plate was coated with TNFR2-His antigen (Sino Biological, 10417-H08H, Assessment #NP_001057.1. Met1-Asp257, with multi-histidine tags expressed on C-terminus) and blocked, added with the gradient diluted TNFR2 monoclonal antibodies and biotin-labeled TNFα fusion protein of fixed concentration for incubation, then added with the secondary antibody Ap-Strepavidin (Herobio, 510401) for incubation. After development, the detection was performed using microplate reader.

[6] = biological target: T3, human TNFR2 on the cell membrane; test: competition flow cytometry, TNFR2 positive cells, TNFα fusion protein at fixed concentration
Experimental: Purified anti-human TNFR2 human-mouse monoclonal antibodies were co-cultured with TNFR2 positive cells and stained. The antibody binding intensity was analyzed by flow cytometry. The specific steps are as follows: cells were counted, centrifugated, resuspended, then added to a 96-deep well plate, and the supernatant was discarded. Gradient diluted anti-TNFR2 antibodies and TNFα fusion protein of fixed concentration were added. After incubation and wash, the secondary antibody PE-streptavidin (Biogen, 405203) was added for incubation, and the samples were detected using Beckman CytoFLEX.

[7] = biological target: T1, TNFR2-His (Sino Biological, 10417-H08H, …); test: competition ELISA, coated TNFR2-His, biotin-labeled TNFα fusion protein at fixed concentration
Experimental: as §2

| Binder | EC50 [1] | binding result (WT) | percent of cells in the upper right quadrant (Q2-UR, mCD3+ and anti-hIgG+) (WT) | EC50 [2] | EC50 [3] | EC50 [4] | IC50 [5] | IC50 [6] | IC50 [7] |
| --- | --- | --- | --- | --- | --- | --- | --- | --- | --- |
| human-mouse chimeric TNFR2 monoclonal antibody 12E12-hFc (antibody, V domains shown, Mouse V regions of clone 12E12 with human constant regions; also called human-mouse chimeric 12E12 antibody) VH: EVQLQQSGAELVKPGASVKLSCTVSGFNIKDFYIHWVKQRPEQGLEWIGRVDPEDGNTEYAPNFQDRATMTTDTSSNTAYLQLSSLTSVDTAVYYCSTWDGFSYFDYWGLGTTLTVSS VL: QAVVTQESALTTSPGETVTLTCRSSTGPVTTNNYANWVQEKPDHLFTGLIGGTNDRAPGVPARFSGSLIGDKTALTITGTQTEDEAVYFCALWYRNHWVFGGGTKLTVL | 0.0454 µg/mL and 0.304 nM | no binding | 0.83% | 0.195 nM | 0.012 mg/L | 0.0346 µg/mL and 0.232 nM | – | – | – |
| human-mouse chimeric TNFR2 monoclonal antibody 27F6-hFc (antibody, V domains shown, Mouse V regions of clone 27F6 with human constant regions) VH: EVQLQQSGTVLARPGASVKMSCKTSGYTFTSYWMHWVKQRPGQGLEWIGTIYPGNSDTSYNQKFKGKAKLTAVTSASTAYMELNSLTNEDSAVFYCTRENLLLRSYFFDYWGQGTTLTVSS VL: DIVMTQSPASLAVSLGQRATISCKASQSVDYDGDSYLNWYQQKPGQPPKLLIYAASNLPSGIPARFSGSGSGTDFTLNIHPVEEEDAATYYCQQSNEDPRTFGGGTKLEIK | – | no binding | 1.04% | – | 0.036 mg/L | – | 0.674 µg/mL and 4.52 nM | 0.179 mg/L | 0.644 mg/L |
